Article PMC5762392 (Nature biotechnology, 2017)
Non-standard residues stand in square brackets, D forms with d. No end group written: not given here. *: point of attachment. Biotin = O=C1N[C@H]2[C@H](CS[C@H]2CCCCC(=O)*)N1; Lys(Me2) = CN(C)CCCC[C@H](N)C(=O)O

Molecular target: MBP fused to the Tudor domain (residues 1484–1603) of 53BP1 (human, UniProt Q12888 1484-1603)
Assay: pull-down

Chain of MBP fused to the Tudor domain (residues 1484–1603) of 53BP1 (Q12888 1484-1603): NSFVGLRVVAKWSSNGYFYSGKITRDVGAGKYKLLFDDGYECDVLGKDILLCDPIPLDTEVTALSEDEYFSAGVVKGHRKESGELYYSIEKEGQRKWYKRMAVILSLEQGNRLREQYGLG

- IC50: 100 to 300 µM
Binder: {Biotin-Mini‑PEG}-YGKGGAKRHR[Lys(Me2)]VLRD [biotin-labeled peptide derived from histone H4K20me2]
